T1: Human CD3eg linker (human)
T1 construct: single-chain construct; also called recombinant human CD3
T1 chain: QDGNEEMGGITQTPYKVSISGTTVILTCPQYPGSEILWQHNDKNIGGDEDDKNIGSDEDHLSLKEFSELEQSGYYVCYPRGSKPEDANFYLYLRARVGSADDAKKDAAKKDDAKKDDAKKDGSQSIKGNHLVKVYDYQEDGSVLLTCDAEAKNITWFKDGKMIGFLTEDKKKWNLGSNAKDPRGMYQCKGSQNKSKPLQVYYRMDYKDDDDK


Target: T1, Human CD3eg linker
Assay: SPR, vs unmutated H183/L072

| fold change of affinity | Binder |
| --- | --- |
| 0.6 fold | dBBDu183H S99N/dBBDu072L (antibody, name in Kabat numbering, V domains shown) VH: QVQLVESGGGLVQPGRSLRLSCAASGFTFSNAWMHWVRQAPGKGLEWVAQIKDKGNAYAAYYAPSVKGRFTISRDDSKNSIYLQMNSLKTEDTAVYYCHYVHYANASTVLPAFGVDAWGQGTTVTVSS VL: DIVMTQSPLSLPVTPGEPASISCQASQELVHMNRNTYLHWYQQKPGQAPRLLIYKVSNRFPGVPDRFSGSGSGTDFTLKISRVEAEDVGVYYCAQGTSVPFTFGQGTKLEIK |
| 0.6 fold | dBBDu183H S100aR/dBBDu072L (antibody, name in Kabat numbering, V domains shown) VH: QVQLVESGGGLVQPGRSLRLSCAASGFTFSNAWMHWVRQAPGKGLEWVAQIKDKGNAYAAYYAPSVKGRFTISRDDSKNSIYLQMNSLKTEDTAVYYCHYVHYASARTVLPAFGVDAWGQGTTVTVSS VL: DIVMTQSPLSLPVTPGEPASISCQASQELVHMNRNTYLHWYQQKPGQAPRLLIYKVSNRFPGVPDRFSGSGSGTDFTLKISRVEAEDVGVYYCAQGTSVPFTFGQGTKLEIK |
| 0.8 fold | dBBDu183H S100aN/dBBDu072L (antibody, name in Kabat numbering, V domains shown) VH: QVQLVESGGGLVQPGRSLRLSCAASGFTFSNAWMHWVRQAPGKGLEWVAQIKDKGNAYAAYYAPSVKGRFTISRDDSKNSIYLQMNSLKTEDTAVYYCHYVHYASANTVLPAFGVDAWGQGTTVTVSS VL: DIVMTQSPLSLPVTPGEPASISCQASQELVHMNRNTYLHWYQQKPGQAPRLLIYKVSNRFPGVPDRFSGSGSGTDFTLKISRVEAEDVGVYYCAQGTSVPFTFGQGTKLEIK |
| 0.9 fold | dBBDu183H S99T/dBBDu072L (antibody, name in Kabat numbering, V domains shown) VH: QVQLVESGGGLVQPGRSLRLSCAASGFTFSNAWMHWVRQAPGKGLEWVAQIKDKGNAYAAYYAPSVKGRFTISRDDSKNSIYLQMNSLKTEDTAVYYCHYVHYATASTVLPAFGVDAWGQGTTVTVSS VL: DIVMTQSPLSLPVTPGEPASISCQASQELVHMNRNTYLHWYQQKPGQAPRLLIYKVSNRFPGVPDRFSGSGSGTDFTLKISRVEAEDVGVYYCAQGTSVPFTFGQGTKLEIK |
| 2 fold | dBBDu183H S99R/dBBDu072L (antibody, name in Kabat numbering, V domains shown) VH: QVQLVESGGGLVQPGRSLRLSCAASGFTFSNAWMHWVRQAPGKGLEWVAQIKDKGNAYAAYYAPSVKGRFTISRDDSKNSIYLQMNSLKTEDTAVYYCHYVHYARASTVLPAFGVDAWGQGTTVTVSS VL: DIVMTQSPLSLPVTPGEPASISCQASQELVHMNRNTYLHWYQQKPGQAPRLLIYKVSNRFPGVPDRFSGSGSGTDFTLKISRVEAEDVGVYYCAQGTSVPFTFGQGTKLEIK |
| 0.5 fold | dBBDu183H S100aQ/dBBDu072L (antibody, name in Kabat numbering, V domains shown) VH: QVQLVESGGGLVQPGRSLRLSCAASGFTFSNAWMHWVRQAPGKGLEWVAQIKDKGNAYAAYYAPSVKGRFTISRDDSKNSIYLQMNSLKTEDTAVYYCHYVHYASAQTVLPAFGVDAWGQGTTVTVSS VL: DIVMTQSPLSLPVTPGEPASISCQASQELVHMNRNTYLHWYQQKPGQAPRLLIYKVSNRFPGVPDRFSGSGSGTDFTLKISRVEAEDVGVYYCAQGTSVPFTFGQGTKLEIK |
| 1.2 fold | dBBDu183H S100aY/dBBDu072L (antibody, name in Kabat numbering, V domains shown) VH: QVQLVESGGGLVQPGRSLRLSCAASGFTFSNAWMHWVRQAPGKGLEWVAQIKDKGNAYAAYYAPSVKGRFTISRDDSKNSIYLQMNSLKTEDTAVYYCHYVHYASAYTVLPAFGVDAWGQGTTVTVSS VL: DIVMTQSPLSLPVTPGEPASISCQASQELVHMNRNTYLHWYQQKPGQAPRLLIYKVSNRFPGVPDRFSGSGSGTDFTLKISRVEAEDVGVYYCAQGTSVPFTFGQGTKLEIK |
| 1.6 fold | dBBDu183H S100aF/dBBDu072L (antibody, name in Kabat numbering, V domains shown) VH: QVQLVESGGGLVQPGRSLRLSCAASGFTFSNAWMHWVRQAPGKGLEWVAQIKDKGNAYAAYYAPSVKGRFTISRDDSKNSIYLQMNSLKTEDTAVYYCHYVHYASAFTVLPAFGVDAWGQGTTVTVSS VL: DIVMTQSPLSLPVTPGEPASISCQASQELVHMNRNTYLHWYQQKPGQAPRLLIYKVSNRFPGVPDRFSGSGSGTDFTLKISRVEAEDVGVYYCAQGTSVPFTFGQGTKLEIK |
| 1.6 fold | dBBDu183H S100aW/dBBDu072L (antibody, name in Kabat numbering, V domains shown) VH: QVQLVESGGGLVQPGRSLRLSCAASGFTFSNAWMHWVRQAPGKGLEWVAQIKDKGNAYAAYYAPSVKGRFTISRDDSKNSIYLQMNSLKTEDTAVYYCHYVHYASAWTVLPAFGVDAWGQGTTVTVSS VL: DIVMTQSPLSLPVTPGEPASISCQASQELVHMNRNTYLHWYQQKPGQAPRLLIYKVSNRFPGVPDRFSGSGSGTDFTLKISRVEAEDVGVYYCAQGTSVPFTFGQGTKLEIK |
| 1 fold | dBBDu183H S99Q/dBBDu072L (antibody, name in Kabat numbering, V domains shown) VH: QVQLVESGGGLVQPGRSLRLSCAASGFTFSNAWMHWVRQAPGKGLEWVAQIKDKGNAYAAYYAPSVKGRFTISRDDSKNSIYLQMNSLKTEDTAVYYCHYVHYAQASTVLPAFGVDAWGQGTTVTVSS VL: DIVMTQSPLSLPVTPGEPASISCQASQELVHMNRNTYLHWYQQKPGQAPRLLIYKVSNRFPGVPDRFSGSGSGTDFTLKISRVEAEDVGVYYCAQGTSVPFTFGQGTKLEIK |
| 1.2 fold | dBBDu183H S100aG/dBBDu072L (antibody, name in Kabat numbering, V domains shown) VH: QVQLVESGGGLVQPGRSLRLSCAASGFTFSNAWMHWVRQAPGKGLEWVAQIKDKGNAYAAYYAPSVKGRFTISRDDSKNSIYLQMNSLKTEDTAVYYCHYVHYASAGTVLPAFGVDAWGQGTTVTVSS VL: DIVMTQSPLSLPVTPGEPASISCQASQELVHMNRNTYLHWYQQKPGQAPRLLIYKVSNRFPGVPDRFSGSGSGTDFTLKISRVEAEDVGVYYCAQGTSVPFTFGQGTKLEIK |
| 1.1 fold | dBBDu183H S100aH/dBBDu072L (antibody, name in Kabat numbering, V domains shown) VH: QVQLVESGGGLVQPGRSLRLSCAASGFTFSNAWMHWVRQAPGKGLEWVAQIKDKGNAYAAYYAPSVKGRFTISRDDSKNSIYLQMNSLKTEDTAVYYCHYVHYASAHTVLPAFGVDAWGQGTTVTVSS VL: DIVMTQSPLSLPVTPGEPASISCQASQELVHMNRNTYLHWYQQKPGQAPRLLIYKVSNRFPGVPDRFSGSGSGTDFTLKISRVEAEDVGVYYCAQGTSVPFTFGQGTKLEIK |
| 0.9 fold | dBBDu183H S99W/dBBDu072L (antibody, name in Kabat numbering, V domains shown) VH: QVQLVESGGGLVQPGRSLRLSCAASGFTFSNAWMHWVRQAPGKGLEWVAQIKDKGNAYAAYYAPSVKGRFTISRDDSKNSIYLQMNSLKTEDTAVYYCHYVHYAWASTVLPAFGVDAWGQGTTVTVSS VL: DIVMTQSPLSLPVTPGEPASISCQASQELVHMNRNTYLHWYQQKPGQAPRLLIYKVSNRFPGVPDRFSGSGSGTDFTLKISRVEAEDVGVYYCAQGTSVPFTFGQGTKLEIK |
| 0.9 fold | dBBDu183H S100aK/dBBDu072L (antibody, name in Kabat numbering, V domains shown) VH: QVQLVESGGGLVQPGRSLRLSCAASGFTFSNAWMHWVRQAPGKGLEWVAQIKDKGNAYAAYYAPSVKGRFTISRDDSKNSIYLQMNSLKTEDTAVYYCHYVHYASAKTVLPAFGVDAWGQGTTVTVSS VL: DIVMTQSPLSLPVTPGEPASISCQASQELVHMNRNTYLHWYQQKPGQAPRLLIYKVSNRFPGVPDRFSGSGSGTDFTLKISRVEAEDVGVYYCAQGTSVPFTFGQGTKLEIK |
| 0.8 fold | dBBDu183H S99V/dBBDu072L (antibody, name in Kabat numbering, V domains shown) VH: QVQLVESGGGLVQPGRSLRLSCAASGFTFSNAWMHWVRQAPGKGLEWVAQIKDKGNAYAAYYAPSVKGRFTISRDDSKNSIYLQMNSLKTEDTAVYYCHYVHYAVASTVLPAFGVDAWGQGTTVTVSS VL: DIVMTQSPLSLPVTPGEPASISCQASQELVHMNRNTYLHWYQQKPGQAPRLLIYKVSNRFPGVPDRFSGSGSGTDFTLKISRVEAEDVGVYYCAQGTSVPFTFGQGTKLEIK |
| 0.8 fold | dBBDu183H S99Y/dBBDu072L (antibody, name in Kabat numbering, V domains shown) VH: QVQLVESGGGLVQPGRSLRLSCAASGFTFSNAWMHWVRQAPGKGLEWVAQIKDKGNAYAAYYAPSVKGRFTISRDDSKNSIYLQMNSLKTEDTAVYYCHYVHYAYASTVLPAFGVDAWGQGTTVTVSS VL: DIVMTQSPLSLPVTPGEPASISCQASQELVHMNRNTYLHWYQQKPGQAPRLLIYKVSNRFPGVPDRFSGSGSGTDFTLKISRVEAEDVGVYYCAQGTSVPFTFGQGTKLEIK |
| 1 fold | dBBDu183H S100aV/dBBDu072L (antibody, name in Kabat numbering, V domains shown) VH: QVQLVESGGGLVQPGRSLRLSCAASGFTFSNAWMHWVRQAPGKGLEWVAQIKDKGNAYAAYYAPSVKGRFTISRDDSKNSIYLQMNSLKTEDTAVYYCHYVHYASAVTVLPAFGVDAWGQGTTVTVSS VL: DIVMTQSPLSLPVTPGEPASISCQASQELVHMNRNTYLHWYQQKPGQAPRLLIYKVSNRFPGVPDRFSGSGSGTDFTLKISRVEAEDVGVYYCAQGTSVPFTFGQGTKLEIK |
| 0.6 fold | dBBDu183H S100aE/dBBDu072L (antibody, name in Kabat numbering, V domains shown) VH: QVQLVESGGGLVQPGRSLRLSCAASGFTFSNAWMHWVRQAPGKGLEWVAQIKDKGNAYAAYYAPSVKGRFTISRDDSKNSIYLQMNSLKTEDTAVYYCHYVHYASAETVLPAFGVDAWGQGTTVTVSS VL: DIVMTQSPLSLPVTPGEPASISCQASQELVHMNRNTYLHWYQQKPGQAPRLLIYKVSNRFPGVPDRFSGSGSGTDFTLKISRVEAEDVGVYYCAQGTSVPFTFGQGTKLEIK |
| 0.9 fold | dBBDu183H S100aT/dBBDu072L (antibody, name in Kabat numbering, V domains shown) VH: QVQLVESGGGLVQPGRSLRLSCAASGFTFSNAWMHWVRQAPGKGLEWVAQIKDKGNAYAAYYAPSVKGRFTISRDDSKNSIYLQMNSLKTEDTAVYYCHYVHYASATTVLPAFGVDAWGQGTTVTVSS VL: DIVMTQSPLSLPVTPGEPASISCQASQELVHMNRNTYLHWYQQKPGQAPRLLIYKVSNRFPGVPDRFSGSGSGTDFTLKISRVEAEDVGVYYCAQGTSVPFTFGQGTKLEIK |
| 0.6 fold | dBBDu183H S100aD/dBBDu072L (antibody, name in Kabat numbering, V domains shown) VH: QVQLVESGGGLVQPGRSLRLSCAASGFTFSNAWMHWVRQAPGKGLEWVAQIKDKGNAYAAYYAPSVKGRFTISRDDSKNSIYLQMNSLKTEDTAVYYCHYVHYASADTVLPAFGVDAWGQGTTVTVSS VL: DIVMTQSPLSLPVTPGEPASISCQASQELVHMNRNTYLHWYQQKPGQAPRLLIYKVSNRFPGVPDRFSGSGSGTDFTLKISRVEAEDVGVYYCAQGTSVPFTFGQGTKLEIK |

Reference: patent publication US20210388087A1 (Chugai, published 2021)
